{"source": "patent US20190351013", "target": "HPV16 L2 minor capsid protein (UniProt P03107)", "sequence (P03107 whole entry)": "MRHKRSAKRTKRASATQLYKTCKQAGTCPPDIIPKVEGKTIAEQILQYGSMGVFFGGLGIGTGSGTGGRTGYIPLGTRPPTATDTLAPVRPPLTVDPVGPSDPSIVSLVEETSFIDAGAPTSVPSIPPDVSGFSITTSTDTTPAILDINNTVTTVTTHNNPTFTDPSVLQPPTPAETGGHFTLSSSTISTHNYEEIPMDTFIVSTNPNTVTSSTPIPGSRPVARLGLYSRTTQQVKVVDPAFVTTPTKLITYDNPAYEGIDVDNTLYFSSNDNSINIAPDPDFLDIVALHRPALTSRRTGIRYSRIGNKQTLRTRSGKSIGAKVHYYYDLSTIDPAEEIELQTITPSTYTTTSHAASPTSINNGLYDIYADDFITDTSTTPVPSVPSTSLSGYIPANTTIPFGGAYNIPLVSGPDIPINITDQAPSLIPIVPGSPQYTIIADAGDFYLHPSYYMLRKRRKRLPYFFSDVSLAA"}
{"substance": "recombinant His-furin", "values": [{"measurement": "cleavage of HPV16 L2 by furin, immunoblot with anti-HPV16 polyclonal antibody", "value": "furin cleaves the L2 protein in the absence of polyR and FI"}]}
